These results are taken from paper doi:10.1101/441683.

This assay addresses TssM (enteroaggregative Escherichia coli (EAEC)). As to the kind of experiment: cryo-EM structure.

With TssJ (natural protein), the stoichiometry N (TssJ per TssM) is 1.5.
